System: MS2 coat protein
Test: apparent KD of MS2 coat protein; designed switch direction (-1 OFF switch, 1 ON switch): -1; higher = weaker reporter binding
In short: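 Designed RNA switches with common flanks were transcribed on Illumina chips by stalled E. coli RNA polymerase and titrated with SNAP-549-labelled MS2 coat protein, from 0.7 or 1.5 nM doubling to 3 µM, in Tris-HCl pH 7.5 buffer with KCl, MgCl2, BSA, DTT, tRNA and Tween-20. Steps lasted 0.8–1.5 h (lowest) to 10–20 min (highest). Titrations ran without input, with 200 uM small-molecule ligand, or with an oligonucleotide input. Normalised cluster fluorescence was curve-fitted, and apparent KD is the per-design median over clusters.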

[1] = input ligand: microRNA oligo, concentration not stated
[2] = Eterna round: R95, input ligand: FMN 200 uM
[3] = Eterna round: R95, input ligand: microRNA oligo, concentration not stated
[4] = Eterna round: R95, input ligand: none

## GCGCUGUCAGGAUAUCGCGCGCGCGCGGAAAUGUGUGUGUGUGAGAAGGGACAUGAGGAUCACCCAUGUGGUGU [-28.5, -27.5 kcal, A 20%, 6-6bis] (Eterna round: R97, puzzle: Exclusion 4)
Input ligand: FMN 200 uM
  apparent KD of MS2 coat protein: 213 nM
Input ligand: none
  apparent KD of MS2 coat protein: 583 nM

## AAAUCGGUAGAGGAUAUUGUACAGGAAACGGUGCGAGAAGGUUGCACAUGAGGAUCACCCAUGUUUAAUUGCGA [EX6 #49] (Eterna round: R97, puzzle: Exclusion 6)
Input ligand: FMN 200 uM
  apparent KD of MS2 coat protein: 43.1 nM
Input ligand: none
  apparent KD of MS2 coat protein: 28.5 nM

## UACCUCACUUCUUUGACUCACAUGAGGAUCACCCAUGUAAUAUAGGAUAUGCAUUUUAUUUCUUUGCAGAAGGAUAUUAGUUUU [JR_ExcNG3_Sub089] (Eterna round: R96, puzzle: Exclusion NG 3)
[1]
  apparent KD of MS2 coat protein: 31.3 nM

## UUUAAUUUUUUUUUUUUACAAGCUUUUUGCUCGUCUUAUACAUGAGGAUCACCCAUGUAAGUGGGAAAUGAAUUAUC [JMF 99] (puzzle: Sensor v3, turn-off variant 2)
[2]
  apparent KD of MS2 coat protein: 53.3 nM
[3]
  apparent KD of MS2 coat protein: 419 nM
[4]
  apparent KD of MS2 coat protein: 77.9 nM

## UAGUAGCAAGGAUAUACAGAGGAGAGGAUUGCAAGAGGUGGACAUGAGGAUCACCCAUGUAGAAGGUGCAGAGA [JR_Exclu2_Sub021] (puzzle: Exclusion 2)
[2]
  apparent KD of MS2 coat protein: 310 nM
[3]
  apparent KD of MS2 coat protein: 275 nM
[4]
  apparent KD of MS2 coat protein: 362 nM

## CCGCUACAUGAGGAUCACCCAUGUCAGGAUAUCGUACGUUCGUCGAAAGACGAUCGUACGAGAAGGGUGUGCGG [Eli x1 4.37] (Eterna round: R97, puzzle: Exclusion 1)
Input ligand: FMN 200 uM
  apparent KD of MS2 coat protein: 169 nM
Input ligand: none
  apparent KD of MS2 coat protein: 155 nM

## AUGCGUGGCUAGGAUAUCGAGGAAUUUAGCCAGCGAGAAGGAGCCACAUGAGGAUCACCCAUGUGGUGAACCUC [jl-ex6-4.62 ViennaUCT mod] (Eterna round: R97, puzzle: Exclusion 6)
Input ligand: FMN 200 uM
  apparent KD of MS2 coat protein: 41.1 nM
Input ligand: none
  apparent KD of MS2 coat protein: 10.2 nM

## AACAGUACAGGAUAUACAUGAGGAUCACCCAUGUGAGAAUUAAGUGGCGAACCACAAAGUAGAAGGGUACUGGA [Mat - Exclusion 3 - JL mod - D1] (Eterna round: R96, puzzle: Exclusion 3)
Input ligand: FMN 200 uM
  apparent KD of MS2 coat protein: 98.2 nM
[1]
  apparent KD of MS2 coat protein: 38.5 nM
Input ligand: none
  apparent KD of MS2 coat protein: 46.3 nM

## AAGAAACAUGAGGAUCACCCAUGUGAGGAUAUGAUUAAGAAAAGAAAAGAAAGAAGAUUCAGAAGGCACAAAGG [salish99-ex1_r3_054] (puzzle: Exclusion 1)
[2]
  apparent KD of MS2 coat protein: 91.4 nM
[3]
  apparent KD of MS2 coat protein: 72.5 nM
[4]
  apparent KD of MS2 coat protein: 82.9 nM

## AUCGUGAAGAAGGAUAUGGGCCCGGUAAAACGACUAGAAGGUCUGACAUGAGGAUCACCCAUGUGAUACCAAAA [Veve] (puzzle: Exclusion 6)
[2]
  apparent KD of MS2 coat protein: 34.1 nM
[3]
  apparent KD of MS2 coat protein: 42.9 nM
[4]
  apparent KD of MS2 coat protein: 35.3 nM

## CCAAAGCGAGGAUAUACUUGCGACCCAAGCGUGGAAGACAUACUUGAGGAUCACCCAAGUAGAAGGCGCGCCAA [Dibixela] (Eterna round: R97, puzzle: Exclusion 2)
Input ligand: FMN 200 uM
  apparent KD of MS2 coat protein: 145 nM
Input ligand: none
  apparent KD of MS2 coat protein: 92 nM

## AAGAAGCAAGGAUAUACAACGGGCCACAGAGCCGAAGGGCAACAUGAGGAUCACCCAUGUAGAAGGUGCGUAAC [Lecebeqube] (puzzle: Exclusion 2)
[2]
  apparent KD of MS2 coat protein: 149 nM
[3]
  apparent KD of MS2 coat protein: 30.3 nM
[4]
  apparent KD of MS2 coat protein: 28.2 nM

## CCUCUACAUGAGGAUCACCCAUGUGAGGAUAUCCUGCGAGGAUCAAAAGAUCCUCGUGGGAGAAGGCAUAUGAU [Omei Ex1 A3] (Eterna round: R97, puzzle: Exclusion 1)
Input ligand: FMN 200 uM
  apparent KD of MS2 coat protein: 36.5 nM
Input ligand: none
  apparent KD of MS2 coat protein: 26.6 nM

## AGAUGCAGAGUAAGGAUAUGGUAGGCUUGCGCAAACCAGAAGGUACAUGAGGAUCACCCAUGUAAGCAUCAAGU [eternacac ex4r4 #5] (Eterna round: R97, puzzle: Brourd's mod of Exclusion 4)
Input ligand: FMN 200 uM
  apparent KD of MS2 coat protein: 16 nM
Input ligand: none
  apparent KD of MS2 coat protein: 15.1 nM

## CUUUUGUGAGGAUAUCAGUAGUUAAAAAAUAAAAUUACUACUGAGAAGGCACAUGAGGAUCACCCAUGUUCCUC [salish99_ex4_r3_016] (puzzle: Exclusion 4)
[3]
  apparent KD of MS2 coat protein: 40.5 nM

## CGCAACACAUGAGGAUCAAACAUGAGGAUCACCCAUGUAUAACAAGCUUUUUGCUCGUCUUAUAAAUAUGUGUUGCG [Electric Eye 2 - Jieux - Sensor, turn-off variant 1] (Eterna round: R97, puzzle: Sensor, turn-off variant 1)
Input ligand: FMN 200 uM
  apparent KD of MS2 coat protein: 16.9 nM
Input ligand: none
  apparent KD of MS2 coat protein: 9.13 nM

## UUAAAUCAUGUAGGAUAUGCGUGGCGAAGCUAUGCAGAAGGACAUGAGGAUCACCCAUGUGCUUCCGUCUGCGUACAGAUGGAA [JL Eng1 1.08 mod 3] (Eterna round: R96, puzzle: Exclusion NG 1)
Input ligand: FMN 200 uM
  apparent KD of MS2 coat protein: 81.4 nM
[1]
  apparent KD of MS2 coat protein: 80.6 nM
Input ligand: none
  apparent KD of MS2 coat protein: 109 nM

## ACAUGAGGAUCACCCAUGUUAGGUUGGUUUUCUCCGGCUGUUGAGGAUAUAGUCCGGUAUCCGCGCUAGAAGGUGAGGGUUGGC [Aenatbe mod 9] (Eterna round: R96, puzzle: Exclusion NG 3)
Input ligand: FMN 200 uM
  apparent KD of MS2 coat protein: 61.9 nM
[1]
  apparent KD of MS2 coat protein: 60 nM
Input ligand: none
  apparent KD of MS2 coat protein: 64.9 nM

## UUUUAGAGAGGAUAUAUAUUGUGAAACAUGAGGAUCACCCAUGUAAUAAUAUGGAUAUAAAUAGAAGGCUCAUUUA [Mat - Exclusion 5 - JL mod - D8] (puzzle: Exclusion 5)
[2]
  apparent KD of MS2 coat protein: 25.7 nM
[3]
  apparent KD of MS2 coat protein: 26.9 nM
[4]
  apparent KD of MS2 coat protein: 28.8 nM

## GCGCAGCUGGUAGGAUAUUACAGACAGGACUCACGUAAGGGAGCCUGACAUGAGGAUCACCCAUGUAAGAAGGGCCGUGGUAUC [Eternabot solution 11] (Eterna round: R96, puzzle: Exclusion NG 2)
Input ligand: FMN 200 uM
  apparent KD of MS2 coat protein: 34.5 nM
[1]
  apparent KD of MS2 coat protein: 19.8 nM
Input ligand: none
  apparent KD of MS2 coat protein: 22.5 nM

## CAUGUGUAAGGAUAUGACAAUGGUAUCGAAAGAUACCAUUGUCAGAAGGUACAUGAGGAUCACCCAUGUGGAUC [Ex4-3: 18] (puzzle: Exclusion 4)
[3]
  apparent KD of MS2 coat protein: 199 nM

## GACCUAUAGGUAGGAUAUCAUUGCGAUUAGCUAUGAGAAGGACCACAUGAGGAUCACCCAUGUCCUCCAAUUAACCAUUUGGUC [Fiskers ExNg1 - 4] (Eterna round: R96, puzzle: Exclusion NG 1)
Input ligand: FMN 200 uM
  apparent KD of MS2 coat protein: 239 nM
[1]
  apparent KD of MS2 coat protein: 69.6 nM
Input ligand: none
  apparent KD of MS2 coat protein: 86.7 nM

## UUUAGUUGGUAAGGAUAUCCUACAUUGUUCUGGCCCGGGCAUGCUACAUGAGGAUCACCCAUGUGGGAGAAGGUGCGUCAUUGC [Design 20] (Eterna round: R96, puzzle: Exclusion NG 2)
Input ligand: FMN 200 uM
  apparent KD of MS2 coat protein: 42.5 nM
[1]
  apparent KD of MS2 coat protein: 42.5 nM
Input ligand: none
  apparent KD of MS2 coat protein: 51.8 nM

## GGUCCUGAUGAUUUCCUAGACAUGAGGAUCACCCAUGUUUAUUUAUUUUGUUUUUAGCUUUUUGGUCGUCAAUAAUA [Mod-Hoo-honey-4] (Eterna round: R97, puzzle: Sensor, turn-off variant 1)
Input ligand: FMN 200 uM
  apparent KD of MS2 coat protein: 100 nM
Input ligand: none
  apparent KD of MS2 coat protein: 99.6 nM

## CAGUACAGAGGAUAUACAUGAGGAUCACCCAUGUGUUUCAGGUACGAGAGUACCGAAUGUAGAAGGCUGUACUG [jl-ex3-4.27 salish99 mod] (Eterna round: R97, puzzle: Exclusion 3)
Input ligand: FMN 200 uM
  apparent KD of MS2 coat protein: 229 nM
Input ligand: none
  apparent KD of MS2 coat protein: 24.5 nM

## GAAAAGGUAGGAUAUACGAAAUAAAAGGGUAGAAAAAAAACACAUGAGGAUCACCCAUGUAGAAGGACCAAAAG [salish99_ex2_r3_084] (puzzle: Exclusion 2)
[2]
  apparent KD of MS2 coat protein: 52.9 nM
[3]
  apparent KD of MS2 coat protein: 15.5 nM
[4]
  apparent KD of MS2 coat protein: 34.7 nM

## CCUCGACAUGAGGAUCACCCAUGUGAGGAUAUCAUAUUCAGACGAAAGGUGUUAGAGUUGAGAAGGCGCAUGUU [Eternabot (L1) Solution 51] (Eterna round: R97, puzzle: Exclusion 1)
Input ligand: FMN 200 uM
  apparent KD of MS2 coat protein: 44.1 nM
Input ligand: none
  apparent KD of MS2 coat protein: 28.3 nM

## AAGGAGUGAGGAUAUGCGCGGGCACGCUCUAAAUAAGAAAGACAUGAGGAUCACCCAUGUAGAAGGCACAAUAA [Leedla] (puzzle: Exclusion 2)
[3]
  apparent KD of MS2 coat protein: 17.8 nM

## GACACUCAUGUAAGUAUUUACAUGAGGAUCACCCAUGUACCACUAGAAGACUAGGGAACGAAACGAGCUGGCUGUCA [Eternabot (Original) Solution 6] (Eterna round: R97, puzzle: Sensor, turn-off variant 1)
Input ligand: FMN 200 uM
  apparent KD of MS2 coat protein: 1290 nM
Input ligand: none
  apparent KD of MS2 coat protein: 567 nM

## AAGGGUGCUUUCAGAACGACAUGAGGAUCACCCAUGUAGACUGAGGAUAUCUACUUCUAAGGACGGGAGAAGGCAGUGUAAUGU [Ex NG3 #71] (Eterna round: R96, puzzle: Exclusion NG 3)
Input ligand: FMN 200 uM
  apparent KD of MS2 coat protein: 25.5 nM
[1]
  apparent KD of MS2 coat protein: 17.8 nM
Input ligand: none
  apparent KD of MS2 coat protein: 22.6 nM

## UCGCGCCUAGGAUAUAUAAGGACUUUCUAGUAUGUUGCGAAACAUGAGGAUCACCCAUGUAGAAGGAGGUAGUG [Eternabot (L2) Solution 89] (Eterna round: R97, puzzle: Exclusion 2)
Input ligand: FMN 200 uM
  apparent KD of MS2 coat protein: 222 nM
Input ligand: none
  apparent KD of MS2 coat protein: 77.3 nM

## ACAUGAGGAUCACCCAUGUGACCACAAUGGCUGAUGUAAAGACAGGAUAUGUGUGAAUAUCUAACACAGAAGGGUCUUGACUGG [Deportation 57 - Jieux - Exclusion NG 3] (Eterna round: R96, puzzle: Exclusion NG 3)
Input ligand: FMN 200 uM
  apparent KD of MS2 coat protein: 53 nM
[1]
  apparent KD of MS2 coat protein: 47.1 nM
Input ligand: none
  apparent KD of MS2 coat protein: 47.8 nM

## GGUAGUUCAGAUCCACAUGAGGAUCACCCAUGUUAAAGGAUCUAGGAUAUCGGGACAUCGAUGCCCGAGAAGGAGACUUUAGCG [Eternabot solution 39] (Eterna round: R96, puzzle: Exclusion NG 3)
Input ligand: FMN 200 uM
  apparent KD of MS2 coat protein: 173 nM
[1]
  apparent KD of MS2 coat protein: 100 nM
Input ligand: none
  apparent KD of MS2 coat protein: 101 nM

## CCCUCACAUGAGGAUCACCCAUGUCAGGAUAUCUCAGUACGUCCACACGGACGCACCAAGAGAAGGGACAAAGC [Veara] (Eterna round: R97, puzzle: Exclusion 1)
Input ligand: FMN 200 uM
  apparent KD of MS2 coat protein: 32.2 nM
Input ligand: none
  apparent KD of MS2 coat protein: 20 nM
